Data on four molecules can be found in patent publication US20170226169A1.

The target of the assay is 109QmHtt (UniProt P42858). Nature of the assay: cell-based or functional assay.
Sequence of 109QmHtt (P42858 other isoform, or with tags, fused parts or gaps): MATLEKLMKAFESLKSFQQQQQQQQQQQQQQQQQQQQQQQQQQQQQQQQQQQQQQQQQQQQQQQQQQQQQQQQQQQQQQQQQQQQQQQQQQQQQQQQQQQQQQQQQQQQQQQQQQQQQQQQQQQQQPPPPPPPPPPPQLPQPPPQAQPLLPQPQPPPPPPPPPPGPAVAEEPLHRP
Turning to RRRRRRRRWD (C-terminal amide (CONH2)) [8R], the average size of the aggregates (TIRF microscopy, Neuro2a cells) stood at 3.3 µm^2.

RQQRRQQDQRQWQRQRQQR (C-terminal amide (CONH2)) [s8R10Q] displayed an average size of the aggregates (TIRF microscopy, Neuro2a cells) of 1.7 µm^2.

For RRRRRRRRWDQQQQQQQQQQ (C-terminal amide (CONH2)) [8R10Q], the average size of the aggregates (TIRF microscopy, Neuro2a cells) was found to be 0.3 µm^2.

On to RRRRRRRRWDQQQQQQQQQQQQQQQ (C-terminal amide (CONH2)) [8R15Q], for which the average size of the aggregates (TIRF microscopy, Neuro2a cells) amounted to 0.2 µm^2.
